In patent EP4810521A1, “ANTI-EGFR AND -HER3 BISPECIFIC ANTIBODY-DRUG CONJUGATE AND USE THEREOF” (priority 2023, dated 2025):

How the values were obtained:
[1] = tested on: NUGC-4 tumor-bearing mouse model; experiment: Anti-tumor effect in NUGC-4 tumor-bearing mouse model; format: in vivo, BALB/c-NUDE mice; settings: NUGC-4, 10 mg/kg single dose intraperitoneal injection, day 32
Excerpt: In the present experiment, the BALB/c NUDE mice inoculated with NUGC-4 cells were used for determining the anti-tumor effect of the EGFR/HER3-ADCs.
The female BALB/c-NUDE mice were purchased from Beijing Vital River Laboratory Animal Technology Co., Ltd, with the grade of SPF, the quality control department is Beijing Vital River Laboratory Animal Technology Co., Ltd, and the certificate number was NO.110011230103807533. The mice were domesticated for 3 days after arrival, and then the study began.
NUGC-4 cells were purchased from NIBIOHN (CAT #: JCRB0834) and routinely subcultured in strict accordance with the instructions for subsequent in vivo experiments. The cells were collected by centrifugation, resuspended in sterile PBS and adjusted to a cell density of 20×10^6 cells/ml. A NUGC-4 tumor-bearing mouse model was established by subcutaneous inoculation of 0.2 ml of cell suspension into the right abdominal region of BALB/c-NUDE mice on day 0.
Tumor volume of each mouse was measured 13 days after tumor cell inoculation, the mice with tumor volumes about 200 mm^3 were selected and grouped on average according to their tumor volume (7 mice per group). […] Administrations were conducted on day 13 after inoculation respectively, and the tumor volume and body weight of mice were monitored twice a week. […] Measurement of tumor volume: the maximum long axis (L) and maximum wide axis (W) of the tumor were measured using a vernier caliper, and the tumor volume was calculated as follows: V=L×W^2/2. Body weight was measured using an electronic balance. Table 3. Experimental design

human HER3 = biological target: T1, human HER3 (human, UniProt P21860 20-643, limits assumed); experiment: ELISA, HER3 antigen coated on plate, anti-human IgG Fc-HRP detection
T1 construct: Coated at 0.25 ug/mL; also called HER3 antigen; ErbB3

human EGFR = biological target: T2, human EGFR (human, UniProt P00533 25-645, limits assumed); experiment: ELISA, EGFR antigen coated on plate, anti-human IgG Fc-HRP detection
T2 construct: Coated at 0.25 ug/mL; also called EGFR antigen

[2] = tested on: human breast cancer cells MCF7; experiment: In vitro cell killing assay (CTG); format: cell-based
Experimental: After 2-3 passages of the resurrected MCF7 cells, the culture medium was poured out firstly, rinsed with 10 mL PBS once, then the cells were digested with 4mL trypsin, the culture medium was terminated before centrifuged at 400xg for 3min, the supernatant was discarded, and the culture medium was further resuspended for counting. The cell density was adjusted to 3E4/mL, 50 µL of which per well was added into a round bottom low adsorption 96-well plate. The antibody to be detected was diluted in a gradient manner, then 50 µL of which per well was added into the corresponding cells, cultured at 37 °C for 5 days, then the 96-well plate was taken out, the plate was balanced to room temperature, 100 µL of CTG detection solution was added into each well, placed at a shaker at 300 rpm for 20 min, 100 µL of which was absorbed and placed into the white bottom 96-well plate, and the luminescence value was detected by using a multifunctional microplate reader.

[3] = tested on: human breast cancer cells MDA-MB-453; experiment: In vitro cell killing assay (CTG); format: cell-based; settings: MDA-MB-453, 5 days, Example 13

Molecule: Patritumab-DXd [reference compound]
- TGI [1]: 51%
- Tumor volume [1]: 636 mm^3

B1: Duligo-LC1-NT3 (bispecific antibody, human IgG1, lambda, L234A L235A, V domains shown)
VH: EVQLVESGGGLVQPGGSLRLSCAASGFTLSGDWIHWVRQAPGKGLEWVGEISAAGGYTDYADSVKGRFTISADTSKNTAYLQMNSLRAEDTAVYYCARESRVSFEAAMDYWGQGTLVTVSS
VL: DIQMTQSPSSLSASVGDRVTITCRASQNIATDVAWYQQKPGKAPKLLIYSASFLYSGVPSRFSGSGSGTDFTLTISSLQPEDFATYYCQQSEPEPYTFGQGTKVEIKG
notes: also called Duoligo-LC1-NT3; duoligo-LC1-NT3
- Kd (human HER3): 0.0257 nM
- Kd (human EGFR): 0.0352 nM
- fold decrease in Kd against SIB001-DXd (human EGFR): ~2.5 fold

B2: Duligo-DXd (conjugate, chains of the INN, looked up)
VH: EVQLVESGGGLVQPGGSLRLSCAASGFTLSGDWIHWVRQAPGKGLEWVGEISAAGGYTDYADSVKGRFTISADTSKNTAYLQMNSLRAEDTAVYYCARESRVSFEAAMDYWGQGTLVTVSS
VL: DIQMTQSPSSLSASVGDRVTITCRASQNIATDVAWYQQKPGKAPKLLIYSASFLYSGVPSRFSGSGSGTDFTLTISSLQPEDFATYYCQQSEPEPYTFGQGTKVEIK
modifications: DXd payload
- IC50 ([2]; MCF7, 5 days): 0.049 nM
- reduction in IC50 ([2]; MCF7, relative to SIB001-DXd): approximately 250 fold
- killing effect [3]: significantly stronger killing effect than SIB001-DXd
- TGI [1]: 75%
- Tumor volume [1]: 414 mm^3
